What was measured:
[1] = system: size-sieved stem cells (SSCs) derived from human bone marrow; test: Morphology of SSCs (phase contrast), neuronal-like transformation; format: cell-based; settings: for morphology of neurites/processes of SSCs: ITS medium, 7 days, GDNF 50 ng/ml, PACAP 20 ng/ml, dbcAMP 0.1 mM, compared to ITS medium alone
Experimental: SSCs were isolated from human bone marrow as described previously (Hung et al. (2002)). In brief, human bone marrow was aspirated from the iliac crest of normal donors, and then washed twice with phosphate-buffered saline (PBS). The cells were loaded into 1.073 g/ml Percoll solution (Sigma®), and then centrifuged at 900 g for 30 min. The mononuclear cells (MNCs) were collected from the interface, and plated at the density of 1×10^6 MNCs/cm^2 onto a 10-cm plastic culture dish comprised of an inserted sieve with 3-μm pores (Transwell System, Corning®). The cells were cultured in Dulbecco's modified Eagle's medium-low glucose (DMFM-LG) containing 10% fetal bovine serum (FBS), 100 U/ml penicillin, […] streptomycin, and 0.25 μg/ml amphotericin B (serum-containing medium). […] However, the cells that passed through the sieve were small, polygonal and had less renewal. SSCs were then harvested with 0.25% trypsin and 1 mM EDTA, and replated on 10-cm culture petri dishes. When SSCs were grown in serum containing medium to 80% confluence, the cells were replated onto 35-mm culture petri dishes at the density of 1×10^5 cells/dish for Western Blotting, or onto 8-well chambers at the density of 1×10^4 cells/well for immunofluorescence.
[…] ITS medium consisted of 56% DMEM-LG (Life Biotech®), 40% MCDB-201 medium (Sigma®), and 1×ITS medium supplement (Sigma®) contained 1 mg/ml insulin, 0.55 mg/ml human transferrin, 0.5 μg/ml sodium selenite, 10 nM dexamethasone (Sigma®), and 10 μM ascorbic acid (Sigma®)). […] However, when SSCs were cultured in serum free medium with ITS supplement, these cells adhered well onto cultured plates and extended their processes. Therefore, treatments were performed in ITS medium.

[2] = system: size-sieved stem cells (SSCs) derived from human bone marrow; test: Western Blotting of neuron-specific markers (NF-L, NF-H) and α-tubulin in SSCs; format: cell-based; settings: 7 days in ITS medium; for expression of NF-L protein in SSCs: compared to ITS medium alone
Experimental: This is to study the effects of GDNF, PACAP and dbcAMP on neuronal differentiation of SSC in ITS medium. The levels of neuron-specific markers (NF-L and NF-H) in the SSCs were examined by Western Blotting. The cells were replated at the density of 1×10^5 cells per 35 mm petri dish and cultured for 7 days in ITS medium with GDNF, PACAP or dbcAMP at the distinct concentrations. Cells were harvested and gently homogenized on ice using PBS containing 1% SDS, 1 mM phenylmethyl-sulfonylfluoride (PMSF), 1 mM EDTA, […], […], and […]. Protein concentrations were determined using a Bio-Rad® DC kit. Ten μg of total protein was loaded onto 7.5% SDS-PAGE, and transferred to a nitrocellulous membrane. NF-L (70 kDa) and NF-H (200 kDa) were identified by incubating the membrane with anti-NF antibodies (Chemicon®) overnight at 4° C., followed by horseradish peroxidase-conjugated secondary antibodies and enhanced chemiluminescence solution (NEN LifeScience®).

[3] = system: size-sieved stem cells (SSCs) derived from human bone marrow; test: Immunofluorescence staining for α-internexin in SSCs; format: cell-based; settings: 7 days in ITS medium; GDNF 50 ng/ml, PACAP 20 ng/ml, dbcAMP 0.1 mM
Experimental: Immunofluorescence staining for another neuronal intermediate filament protein, α-internexin (FIG. 5), was performed using antibodies against α-internexin (1:200; Chemicon®).

[4] = system: size-sieved stem cells (SSCs) derived from human bone marrow; test: Immunofluorescence for synapsin-1 in SSCs; format: cell-based; settings: 7 days in ITS medium; 50 ng/ml GDNF or 20 nM PACAP
Experimental: To detect the morphological change of the SSCs that had been treated with 50 ng/ml GDNF or 20 nM PACAP in ITS medium for 7 days, the SSCs were fixed in PBS-containing 4% paraformaldehyde for 10 minutes. Examination of immunofluorescence for synapsin-1, a synapse vesicle protein, was performed by incubating SSCs with anti-synapsin-1 antibodies (1:200; BD Biosciences®) in PBS-containing 0.1% Triton X-100 and 5% horse serum overnight at 4° C., followed by biotinylated secondary antibodies (1:200; Vector®) and FITC-avidin (1:200; Vector®).

[5] = system: rats with spinal cord injury (SCI); settings: intraspinal injection; cited from earlier work

For `CCCC(=O)Nc1ncnc2c1ncn2[C@@H]1O[C@@H]2COP(=O)(O)O[C@H]2[C@H]1OC(=O)CCC` [dbcAMP, dibutyryl cAMP, reference compound], the “morphology of neurites/processes of SSCs” value [1] was “induced highly branched, elongated, and delicate processes”, the “level of α-tubulin in SSCs” value [2] was “increased” and the “expression of NF-L protein in SSCs” value [2] was “increased”. For the same molecule, the “process branching/elongation of SSCs (α-internexin staining)” value [3] was “more extensive branched, elongated processes”.

B1: GDNF: glial cell line-derived neurotrophic factor, a potent survival factor for many CNS neuronal cell populations (R&D) (protein, UniProt P39905 78-211, looked up)
Glial cell line-derived …: SPDKQMAVLPRRERNRQAAAANPENSRGKGRRGQRGKNRGCVLTAIHLNVTDLGLGYETKEELIFRYCSGSCDAAETTYDKILKNLSRNRRLVSDKVGQACCRPIAFDDDLSFLDDNLVYHILRKHSAKRCGCI
With B1 the “response of SSCs in DMEM-LG medium without serum” value ([1]; DMEM-LG medium without serum (no ITS supplement)) was “respond poorly”, the “morphology of neurites/processes of SSCs” value [1] was “further improved the extension of neurites” and the “NF-H levels in SSCs” value [2] was “less effect”. The “level of α-tubulin in SSCs” value [2] was “induces”, the “expression of NF-L protein in SSCs” value [2] was “stimulatory effect” and the “process branching/elongation of SSCs (α-internexin staining)” value [3] was “could induce process branching of SSCs to some extent”. The “processes of synapsin-1 positive cells” value [4] was “extended processes with branching” and the hindlimb recovery [5] was “improved hindlimb recovery”.
